Results taken from US20220031842A1 (JIANGSU HENGRUI MEDICINE, published 2022).

Tests used:
[1] = target: T1, Fusion protein of LAG-3 extracellular region and hIgG1 Fc (human); assay: competition: biotin-LAG-3-Fc binding to fixed Daudi cells, antibody titrated
T1 construct: Limits of the signal peptide are marked only by lost underlining; also called LAG-3-Fc; LAG-3-Fc fusion protein
Experimental: Daudi cells (human leukemia cells, purchased from the cell bank in Chinese Academy of Sciences) were seeded in 96-well plate with a density of 3×10⁵/well. After centrifugation at 1000 rpm, the supernatant was discarded and then the plate was fixed with 4% PFA for 30 min at room temperature. The plate was washed 4 times with PBS after discarding the fixed solution, and the plate was blocked with 200 μl/well of blocking solution containing 5% skim milk (Bright Dairy, skim milk powder) diluted in PBS, and incubated at 37° C. for 2.5 hours. After blocking, the blocking solution was discarded and the plate was washed 5 times with PBST buffer (pH7.4 PBS containing 0.05% tween-20), added with 50 μl/well mixture of biotin-labeled (Biotin labeling kit, Dojindo Chemical, Cat No. LK03) LAG-3-Fc fusion protein (produced in-house, SEQ ID NO: 3) and gradient concentrations of the antibody to be tested, wherein the biotin-labeled LAG-3-Fc fusion protein has been diluted with sample diluent (PH7.4 PBS containing 1% BSA) at a final concentration of 0.4 μg/ml, and pre-mixed for an hour, then the plate was incubated at 37° C. for 1 h. The reaction solution was discarded and the plate was washed 5 times with PBST after incubation, 50 μl/well of HRP-labeled Streptavidin (Sigma, Cat No. 52438) diluted with sample diluent was added, and the plate was incubated at 37° C. for 1 h. After washing the plate 5 times with PBST, 50 μl/well of TMB chromogenic substrate (KPL, Cat No. 52-00-03) was added to each well, and incubated at room temperature for 5-15 min, the reaction was stopped by the addition of 50 μl 1M H₂SO₄ to each well. The OD value at a wavelength of 450 nm was read on NOVOStar microplate reader, and then the activity of the LAG-3 antibody in blocking the binding of the antigen to Daudi cells was calculated.

[2] = target: T2, LAG-3 extracellular domain with a Flag tag (human, UniProt P18627 23-434); assay: SPR (Biacore), antibody captured on anti-human capture chip, LAG-3-Flag in flow
T2 construct: also called LAG-3-Flag; LAG-3-Flag antigen
T2 sequence: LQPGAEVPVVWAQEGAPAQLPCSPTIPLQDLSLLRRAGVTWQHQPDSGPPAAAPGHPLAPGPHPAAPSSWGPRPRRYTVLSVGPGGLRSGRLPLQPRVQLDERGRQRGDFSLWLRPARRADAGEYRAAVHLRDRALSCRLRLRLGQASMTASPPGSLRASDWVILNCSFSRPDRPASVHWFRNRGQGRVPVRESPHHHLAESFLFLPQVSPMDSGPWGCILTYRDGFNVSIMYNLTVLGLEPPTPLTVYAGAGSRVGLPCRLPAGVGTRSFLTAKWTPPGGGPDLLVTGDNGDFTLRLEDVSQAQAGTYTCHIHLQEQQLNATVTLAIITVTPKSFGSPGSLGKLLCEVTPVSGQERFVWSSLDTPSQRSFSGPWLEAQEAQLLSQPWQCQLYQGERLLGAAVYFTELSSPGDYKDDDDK
Description: 2. […] Then, the LAG-3-Flag antigen (produced in-house, SEQ ID NO:1) was flowed through the surface of the biochip, and the reaction signal was detected real time using a Biacore instrument to obtain the binding and dissociation curves, the value of affinity was obtained by fitting, see table 10 below. After each cycle of dissociation was finished in the experiment, the biochip was washed and regenerated with a regeneration solution provided in the human anti-capture kit.

[3] = target: T3, Fusion protein of LAG-3 extracellular region and mIgG2a Fc (human); assay: ELISA, LAG-3-mFc captured by anti-mouse Fc on plate (which fusion: inferred)
T3 construct: Limits of the signal peptide are marked only by lost underlining; also called LAG-3-mFc; LAG-3-mFc fusion protein
T3 chain: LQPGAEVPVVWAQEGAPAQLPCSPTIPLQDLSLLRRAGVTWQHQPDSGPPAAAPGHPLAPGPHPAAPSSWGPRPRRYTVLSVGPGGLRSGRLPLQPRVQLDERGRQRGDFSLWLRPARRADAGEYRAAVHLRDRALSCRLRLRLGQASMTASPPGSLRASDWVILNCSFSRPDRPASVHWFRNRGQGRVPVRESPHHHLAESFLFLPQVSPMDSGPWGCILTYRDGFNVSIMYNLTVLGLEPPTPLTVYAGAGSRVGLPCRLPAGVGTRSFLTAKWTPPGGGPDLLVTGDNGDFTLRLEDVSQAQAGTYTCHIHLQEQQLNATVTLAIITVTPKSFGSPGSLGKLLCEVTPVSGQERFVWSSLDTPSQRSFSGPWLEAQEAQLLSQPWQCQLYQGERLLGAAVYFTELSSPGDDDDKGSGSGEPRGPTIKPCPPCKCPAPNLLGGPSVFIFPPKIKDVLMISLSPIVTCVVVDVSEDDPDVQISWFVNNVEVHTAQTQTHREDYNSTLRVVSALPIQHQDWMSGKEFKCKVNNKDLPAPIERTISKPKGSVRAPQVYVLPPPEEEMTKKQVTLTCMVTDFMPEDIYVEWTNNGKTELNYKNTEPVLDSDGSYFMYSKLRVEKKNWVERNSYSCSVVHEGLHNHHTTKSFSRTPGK
Description: The binding ability of anti-LAG-3 antibody to human LAG-3 protein was detected by ELISA assay. LAG-3 fusion protein with Fc or mFc tag was immobilized into 96-well microtiter plate by binding to anti-Fc or anti-mFc antibody coated on the microtiter plate, the strength of the signal after the addition of the antibody was used to determine the binding activity of the antibody to LAG-3, the specific experimental method is as follows.
The goat anti-human Fc antibody (Jackson Immuno Research, Cat No. 109-005-008) or goat anti-mouse Fc antibody (Sigma, Cat No. M3534-1ML) was diluted to a concentration of 2 μg/ml with PBS buffer at pH 7.4 (Sigma, Cat No. P4417-100TAB), and added to a 96-well plate at a volume of 50 μl/well and then, the plate was incubated in the incubator at 37° C. for 2 hours. After discarding the liquid, the plates were blocked with 200 μl/well of blocking solution containing 5% skim milk (Bright Dairy, skim milk powder) in PBS, and incubated in the incubator at 37° C. for 2.5 hours or overnight at 4° C. (16-18 hours). After blocking, the blocking solution was discarded and the plate was washed 5 times with PBST buffer (PH7.4 PBS containing 0.05% tween-20). LAG-3-Fc fusion protein (SEQ ID NO:3, produced in-house) or LAG-3-mFc fusion protein (SEQ ID NO: 4, produced in-house) was diluted with sample diluent (PH7.4 PBS containing 1% BSA) to 1 μg/ml and was added to each well, 50 μl/well. Then the plate was incubated in the incubator at 37° C. for 1 h or overnight at 4° C. After incubation, the reaction solution in the plate was discarded, and the plate was washed with PBST for 6 times, and then was added with 50 μl/well of various concentrations of antibodies to be tested (hybridoma purified antibody or humanized antibody) which have been diluted with sample diluent, and the plate was incubated at 37° C. for 1 h. The plates was washed 5 times with PBST after incubation, and was added with 100 μl/well of goat anti-mouse (Jackson Immuno Research, Cat No. 115-035-003) or goat anti-human secondary antibody (Jackson Immuno Research, Cat No. 109-035-003) labeled with HRP, diluted in sample diluent, and the plate was incubated at 37° C. for 1 h.

T1 sequence (chain, as listed by the source limits assumed): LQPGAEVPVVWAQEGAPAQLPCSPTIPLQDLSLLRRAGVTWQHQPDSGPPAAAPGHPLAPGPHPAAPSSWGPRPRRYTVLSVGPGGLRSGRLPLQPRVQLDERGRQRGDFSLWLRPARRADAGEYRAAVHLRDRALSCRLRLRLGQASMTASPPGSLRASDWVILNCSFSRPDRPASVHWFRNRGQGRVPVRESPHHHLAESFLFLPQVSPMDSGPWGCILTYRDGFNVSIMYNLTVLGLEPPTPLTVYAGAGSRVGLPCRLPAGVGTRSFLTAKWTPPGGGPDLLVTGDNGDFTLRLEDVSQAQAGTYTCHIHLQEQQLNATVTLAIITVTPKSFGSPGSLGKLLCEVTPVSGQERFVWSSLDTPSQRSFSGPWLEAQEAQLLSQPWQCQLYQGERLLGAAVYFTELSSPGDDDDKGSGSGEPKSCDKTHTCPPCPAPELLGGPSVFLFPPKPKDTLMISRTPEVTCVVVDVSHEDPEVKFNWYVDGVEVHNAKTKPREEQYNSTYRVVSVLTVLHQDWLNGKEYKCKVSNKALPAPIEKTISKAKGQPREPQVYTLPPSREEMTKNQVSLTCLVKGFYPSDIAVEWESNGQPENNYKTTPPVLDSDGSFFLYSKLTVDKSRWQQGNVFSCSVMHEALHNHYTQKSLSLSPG

B1: Hu303-004 (antibody, human IgG4 S228P, kappa, V domains shown)
VH: QVQLVQSGAEVKKPGASVKVSCKASGYTFTDYYMNWVRQAPGQRLEWMGVINPYNGDTAYNQKFKGRVTITRDTSASTAYMELSSLRSEDTAVYYCARDDGYYDYYFDVWGQGTTVTVSS
VL: DIQMTQSPSSLSASVGDRVTITCRASQDIGSRLNWYQQKPGKAPKLLIYATSTLDSGVPSRFSGSGSGTDFTLTISSLQPEDFATYYCLQLASSPPTFGGGTKVEIKR
notes: Humanized mAb303
IC50 [1]: 0.502 nM
Kd [2]: 1.06 nM
EC50 [3]: 0.278 nM

B2: Hu303-009 (antibody, human IgG4 S228P, kappa, V domains shown)
VH: QVQLVQSGAEVKKPGASVKVSCKASGYTFTDYYMNWVRQAPGQRLEWMGVINPYNGDTAYNQKFKGRVTITVDKSASTAYMELSSLRSEDTAVYYCTRDDGYYDYYFDVWGQGTTVTVSS
VL: DIQMTQSPSSLSASVGDRVTITCRASQDIGSRLNWYQQKPGKAPKLLIYATSTLDSGVPSRFSGSGSGTDFTLTISSLQPEDFATYYCLQLASSPPTFGGGTKVEIKR
notes: Humanized mAb303
IC50 [1]: 0.417 nM
Kd [2]: 0.943 nM
EC50 [3]: 0.316 nM

B3: Hu303-023 (antibody, human IgG4 S228P, kappa, V domains shown)
VH: QVQLVQSGAEVKKPGASVKVSCKASGYTLTDYYMNWVRQAPGQRLEWIGVINPYNGDTAYNQKFKGRATLTVDKSASTAYMELSSLRSEDTAVYYCTRDDGYYDYYFDVWGQGTTVTVSS
VL: DIQMTQSPSSLSASVGDRVTLTCRASQDIGSRLNWLQQKPGGAFKRLIYATSTLDSGVPKRFSGSRSGTDFTLTISSLQPEDFADYYCLQLASSPPTFGGGTKVEIKR
notes: Humanized mAb303
IC50 [1]: 0.369 nM
EC50 [3]: 0.152 nM

B4: Hu303-005 (antibody, human IgG4 S228P, kappa, V domains shown)
VH: QVQLVQSGAEVKKPGASVKVSCKASGYTFTDYYMNWVRQAPGQRLEWMGVINPYNGDTAYNQKFKGRVTITRDTSASTAYMELSSLRSEDTAVYYCARDDGYYDYYFDVWGQGTTVTVSS
VL: DIQMTQSPSSLSASVGDRVTITCRASQDIGSRLNWYQQKPGKAPKRLIYATSTLDSGVPSRFSGSRSGTDFTLTISSLQPEDFATYYCLQLASSPPTFGGGTKVEIKR
notes: also called LAG-3 antibody Hu303-005; LAG3 antibody Hu303-005
IC50 [1]: 0.622 nM
Kd [2]: 0.0715 nM
EC50 [3]: 0.309 nM

B5: Hu303-022 (antibody, human IgG4 S228P, kappa, V domains shown)
VH: QVQLVQSGAEVKKPGASVKVSCKASGYTLTDYYMNWVRQAPGQRLEWIGVINPYNGDTAYNQKFKGRATLTVDKSASTAYMELSSLRSEDTAVYYCTRDDGYYDYYFDVWGQGTTVTVSS
VL: DIQMTQSPSSLSASVGDRVTITCRASQDIGSRLNWLQQKPGKAFKRLIYATSTLDSGVPKRFSGSRSGTDFTLTISSLQPEDFATYYCLQLASSPPTFGGGTKVEIKR
notes: Humanized mAb303
IC50 [1]: 0.36 nM
EC50 [3]: 0.145 nM

B6: Hu303-016 (antibody, human IgG4 S228P, kappa, V domains shown)
VH: QVQLVQSGAEVKKPGASVKVSCKASGYTLTDYYMNWVRQAPGQRLEWMGVINPYNGDTAYNQKFKGRVTITVDKSASTAYMELSSLRSEDTAVYYCTRDDGYYDYYFDVWGQGTTVTVSS
VL: DIQMTQSPSSLSASVGDRVTITCRASQDIGSRLNWYQQKPGKAPKRLIYATSTLDSGVPKRFSGSRSGTDFTLTISSLQPEDFATYYCLQLASSPPTFGGGTKVEIKR
notes: Humanized mAb303
IC50 [1]: 0.395 nM
Kd [2]: 0.0748 nM
EC50 [3]: 0.161 nM

B7: Hu303-014 (antibody, human IgG4 S228P, kappa, V domains shown)
VH: QVQLVQSGAEVKKPGASVKVSCKASGYTLTDYYMNWVRQAPGQRLEWMGVINPYNGDTAYNQKFKGRVTITVDKSASTAYMELSSLRSEDTAVYYCTRDDGYYDYYFDVWGQGTTVTVSS
VL: DIQMTQSPSSLSASVGDRVTITCRASQDIGSRLNWYQQKPGKAPKLLIYATSTLDSGVPSRFSGSGSGTDFTLTISSLQPEDFATYYCLQLASSPPTFGGGTKVEIKR
notes: Humanized mAb303
IC50 [1]: 0.467 nM
Kd [2]: 0.491 nM
EC50 [3]: 0.232 nM

B8: Hu303-006 (antibody, human IgG4 S228P, kappa, V domains shown)
VH: QVQLVQSGAEVKKPGASVKVSCKASGYTFTDYYMNWVRQAPGQRLEWMGVINPYNGDTAYNQKFKGRVTITRDTSASTAYMELSSLRSEDTAVYYCARDDGYYDYYFDVWGQGTTVTVSS
VL: DIQMTQSPSSLSASVGDRVTITCRASQDIGSRLNWYQQKPGKAPKRLIYATSTLDSGVPKRFSGSRSGTDFTLTISSLQPEDFATYYCLQLASSPPTFGGGTKVEIKR
notes: Humanized mAb303
IC50 [1]: 0.821 nM
Kd [2]: 0.0753 nM
EC50 [3]: 0.288 nM

B9: Hu229-011 (antibody, human IgG4 S228P, kappa, V domains shown)
VH: QVQLVQSGSELKKPGASVKVSCKASGYTFTTSGMSWVRQAPGQGLKWMGWINTYSGVPTYADDFKGRFVFSLDTSVSTAYLQISSLKAEDTAVYYCARDNYDARDVYYYAMDYWGQGTTVTVSS
VL: DIQMTQSPSSLSASVGDRVTITCRASENIYSNLAWYQQKPGKSPKLLVYAATNLADGVPSRFSGSGSGTQYTLTISSLQPEDFATYYCQHFWITPWTFGGGTKVEIKR
notes: Humanized mAb229
IC50 [1]: 0.566 nM
EC50 [3]: 0.201 nM

B10: Hu229-016 (antibody, human IgG4 S228P, kappa, V domains shown)
VH: QVQLVQSGSELKKPGASVKVSCKASGYTFTTSGMSWVKQAPGQGLKWMGWINTYSGVPTYADDFKGRFVFSLDTSVSTAYLQISSLKAEDTATYFCARDNYDARDVYYYAMDYWGQGTTVTVSS
VL: DIQMTQSPSSLSASVGDRVTITCRASENIYSNLAWYQQKPGKAPKLLIYAATNLADGVPSRFSGSGSGTDFTLTISSLQPEDFATYYCQHFWITPWTFGGGTKVEIKR
notes: Humanized mAb229
IC50 [1]: 0.875 nM
EC50 [3]: 0.154 nM
